{"source": "paper PMC9986639", "origin": "cited, not measured here", "molecular_target": "PAPR (Escherichia coli) (UniProt P17854)", "sequence (P17854 2-244)": "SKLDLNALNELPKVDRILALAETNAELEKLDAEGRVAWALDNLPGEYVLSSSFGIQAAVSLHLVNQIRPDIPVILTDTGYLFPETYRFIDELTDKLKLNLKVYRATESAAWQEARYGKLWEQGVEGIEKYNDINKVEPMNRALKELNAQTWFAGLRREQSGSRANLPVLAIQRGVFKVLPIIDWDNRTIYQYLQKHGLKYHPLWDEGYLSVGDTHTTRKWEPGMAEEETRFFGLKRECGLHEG"}
{"substance": "Trx1 (from UniProt P0AA25)", "values": [{"measurement": "Kd", "value": 110, "unit": "µM"}]}
